In publication doi:10.1101/2021.08.02.454546 (bioRxiv, 2021):

How the values were obtained:
[1] = target: T1, SARS-CoV-2 S2 peptide #288 (1149-KEELDKYFKNHTSPD-1163) (SARS-CoV-2 (spike 1149-1163, matches …)); test: ELISA; details: both partners purified
T1 chain: KEELDKYFKNHTSPD

[2] = target: T2, shorter version of peptide #289 (1153-DKYFKNHTSPD-1163) (SARS-CoV-2 (spike 1153-1163, matches …)); test: SPR; details: both partners purified
T2 chain: DKYFKNHTSPD

B1: CV3–25 IgG (antibody, V domains shown)
VH: EVQLVESGAEVKKPGESLKISCKGSGYTFTRYWIGWVRQMPGKGLEWMGIIYPGDSDTRYSPSFQGHVTISADKSISTAYLQWNSLKASDTAMYYCARLPQYCSNGVCQRWFDPWGQGTLVTVSS
VL: EIVLTQSPSSVSASVGDRVTITCRASQGISSWLAWYQQKPGKAPKLLIYAASSLQSGVPSRFSGSGSGTDFTLTISSLQPEDFATYYCQQGNSFPYTFGQGTNLEIK
binding result [1]: binds
Kd [2]: ~1000 nM
